Laboratory results reported in paper PMC9280360.
“And” between values parts separate entries of the source, which are not always exact repeats. Equal values may be shown once.

Biological target: proprietary Ral effector protein (Ral-BP binding plate of the RalA G-LISA Activation Assay Kit)
Assay: ELISA; RalA G-LISA Activation Assay Kit; purified RalA incubated in the presence or absence of 15 uM GTP for 1.5 h at 25 C, then 50 ng of the RalA/GTP mixture applied to the Ral-BP binding plate (effector immobilised); n = 3

| downstream effector binding (G-LISA signal) | Binder |
| --- | --- |
| 3.24 and 3.33 | Flag-tagged mutant RalA (RALA c.G482A, p.Arg161Gln) (natural protein) MAANKPKGQNSLALHKVIMVGSGGVGKSALTLQFMYDEFVEDYEPTKADSYRKKVVLDGEEVQIDILDTAGQEDYAAIRDNYFRSGEGFLCVFSITEMESFAATADFREQILRVKEDENVPFLLVGNKSDLEDKRQVSVEEAKNRAEQWNVNYVETSAKTQANVDKVFFDLMREIRARKMEDSKEKNGKKKRKSLAKRIRERCCIL |
| 1.74 | Flag-tagged wild-type RalA (RALA, NM_005402) (natural protein) MAANKPKGQNSLALHKVIMVGSGGVGKSALTLQFMYDEFVEDYEPTKADSYRKKVVLDGEEVQIDILDTAGQEDYAAIRDNYFRSGEGFLCVFSITEMESFAATADFREQILRVKEDENVPFLLVGNKSDLEDKRQVSVEEAKNRAEQWNVNYVETSAKTRANVDKVFFDLMREIRARKMEDSKEKNGKKKRKSLAKRIRERCCIL |
